The values that follow are results of earlier work, collected in patent publication US20050164248A1, “Compositions isolated from bovine tissues and methods for their use” (priority 1999, published 2005).

For the series, the system named is Candida albicans. The note with it: general statement, no value.

B1: Lactoferrin (protein, UniProt P02788 20-710, looked up)
Lactotransferrin: GRRRSVQWCAVSQPEATKCFQWQRNMRKVRGPPVSCIKRDSPIQCIQAIAENRADAVTLDGGFIYEAGLAPYKLRPVAAEVYGTERQPRTHYYAVAVVKKGGSFQLNELQGLKSCHTGLRRTAGWNVPIGTLRPFLNWTGPPEPIEAAVARFFSASCVPGADKGQFPNLCRLCAGTGENKCAFSSQEPYFSYSGAFKCLRDGAGDVAFIRESTVFEDLSDEAERDEYELLCPDNTRKPVDKFKDCHLARVPSHAVVARSVNGKEDAIWNLLRQAQEKFGKDKSPKFQLFGSPSGQKDLLFKDSAIGFSRVPPRIDSGLYLGSGYFTAIQNLRKSEEEVAARRARVVWCAVGEQELRKCNQWSGLSEGSVTCSSASTTEDCIALVLKGEADAMSLDGGYVYTAGKCGLVPVLAENYKSQQSSDPDPNCVDRPVEGYLAVAVVRRSDTSLTWNSVKGKKSCHTAVDRTAGWNIPMGLLFNQTGSCKFDEYFSQSCAPGSDPRSNLCALCIGDEQGENKCVPNSNERYYGYTGAFRCLAENAGDVAFVKDVTVLQNTDGNNNEAWAKDLKLADFALLCLDGKRKPVTEARSCHLAMAPNHAVVSRMDKVERLKQVLLHQQAKFGRNGSDCPDKFCLFQSETKNLLFNDNTECLARLHGKTTYEKYLGPQYVAGITNLKKCSTSPLLEACEFLRK
As for B1, the “inhibitory activity against Candida (statement on control peptide)” value is “extremely inhibitory”.
